{
  "source": "paper PMC7558290",
  "about": "“Evaluation on Elongation Factor 1 Alpha of Entamoeba histolytica Interaction with the Intermediate Subunit of the Gal/GalNAc Lectin and Actin in Phagocytosis” (Pathogens, 2020)",
  "binders": {"B1": {"name": "C-terminal fragment of the intermediate subunit of the Gal/GalNAc lectin (Igl-C) (domain or fragment)", "chain": "EGPNAEDKKKSCAQLNNNCKKEGKYEISDGFVTCLDCDDSAYIVGSQVGACTQCSPNAFKDENNKCQLCSTKQSQYGHCAACSATACITCEDINLILTGEKPCTVCKDGFYQIENATDGVYCSPCPAKCKTCKYNTTSKKVECVTCTEQRLKDIKAPECACPTGTVQLENGTCQSCSDLSKYPGCKKTDSCNVDSRTGFIYATECSDGFSGRSPYSNCTTCTKSNYYPKEGEKNGCAKCDDKCATCSDKDTCLTCADPLKVGSKCDGCKTGYYMSNGECKPCTNHCSECSSAAECTVCESDTYKVISGNGCNSCVDGFYFDEIKGTCIPCTSPCTKCVGVKKDCEEQETGCNSEKKKIVEECTKCSTKDHIAEVPVNGACVCAYGYVEGTSTEDNKIECQACKAKVNEFCDSCNSKDCLRCNAEYLEAKGGECVCVEGYYTSSWGSCIPCSRHMPHCTKCTGEGECTTCEDGWKLKDGKCNGAKGI"}},
  "target": "T1, recombinant EF1a protein (rEF1a), elongation factor 1 alpha of Entamoeba histolytica (Entamoeba histolytica, UniProt P31018 1-442)",
  "T1 construct": "Elongation factor 1 alpha (EF1a) of Entamoeba histolytica",
  "T1 sequence (looked up)": "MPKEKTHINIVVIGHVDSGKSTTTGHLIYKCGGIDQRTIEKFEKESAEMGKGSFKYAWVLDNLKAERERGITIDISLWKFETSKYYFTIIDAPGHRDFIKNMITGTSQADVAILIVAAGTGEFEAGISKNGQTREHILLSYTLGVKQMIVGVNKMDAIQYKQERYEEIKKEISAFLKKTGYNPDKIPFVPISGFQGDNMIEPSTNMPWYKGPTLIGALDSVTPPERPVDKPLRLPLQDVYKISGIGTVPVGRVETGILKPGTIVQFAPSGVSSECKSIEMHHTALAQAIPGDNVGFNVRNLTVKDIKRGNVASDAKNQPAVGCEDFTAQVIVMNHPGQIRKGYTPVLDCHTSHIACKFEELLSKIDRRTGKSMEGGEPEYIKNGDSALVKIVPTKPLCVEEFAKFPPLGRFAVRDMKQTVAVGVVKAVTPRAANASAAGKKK",
  "experiment": "BLI; Octet-Red96; Igl-C (30 ug/mL, sodium acetate pH 4.0) or BSA (sodium acetate pH 5.0) immobilised on activated AR2G biosensors; rEF1a as analyte, twofold dilutions 4000 to 250 nM; running buffer pH 7.4, 1x Kinetics buffer, 30 °C; 1:1 binding model",
  "conditions": "both partners purified",
  "data": [
    {"binder": "B1", "values": [
      {"measurement": "Kd", "result": 90.7, "unit": "nM"},
      {"measurement": "koff", "result": 0.000347, "unit": "s⁻¹"},
      {"measurement": "kon", "result": 3810, "unit": "M⁻¹ s⁻¹"}
    ]}
  ]
}
